Reference: patent US8586034B2, “Cytomegalovirus disintegrin-like peptides” (priority 2004, dated 2013)

T1: β3 integrin (Homo sapiens, UniProt P05106)
T1 construct: endogenous in cells; host or cells: Normal Human Dermal Fibroblasts (NHDF), detergent lysate
T1 sequence (P05106 27-788): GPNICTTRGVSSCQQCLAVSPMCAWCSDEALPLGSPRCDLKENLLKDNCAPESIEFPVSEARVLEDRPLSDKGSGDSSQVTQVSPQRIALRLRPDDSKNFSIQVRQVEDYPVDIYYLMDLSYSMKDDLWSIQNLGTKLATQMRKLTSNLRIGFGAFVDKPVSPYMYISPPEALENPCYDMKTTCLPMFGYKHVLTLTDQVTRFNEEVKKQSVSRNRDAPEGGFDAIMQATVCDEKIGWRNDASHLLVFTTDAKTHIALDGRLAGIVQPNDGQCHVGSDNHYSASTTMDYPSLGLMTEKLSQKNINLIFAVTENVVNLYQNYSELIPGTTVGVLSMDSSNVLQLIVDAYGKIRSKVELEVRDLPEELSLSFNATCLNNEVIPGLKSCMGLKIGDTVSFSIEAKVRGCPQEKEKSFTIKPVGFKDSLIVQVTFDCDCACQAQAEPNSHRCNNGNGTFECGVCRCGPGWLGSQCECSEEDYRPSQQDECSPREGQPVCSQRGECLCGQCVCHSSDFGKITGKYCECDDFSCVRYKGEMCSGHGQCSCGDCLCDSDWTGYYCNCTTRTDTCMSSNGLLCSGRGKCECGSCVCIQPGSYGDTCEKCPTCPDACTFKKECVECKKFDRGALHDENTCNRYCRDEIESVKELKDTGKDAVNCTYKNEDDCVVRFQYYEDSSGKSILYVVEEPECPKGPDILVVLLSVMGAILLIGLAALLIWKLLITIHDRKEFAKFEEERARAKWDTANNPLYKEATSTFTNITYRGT

B1: EGF: known cytoskeletal reorganizer (protein, UniProt P01133 23-1207, looked up)
Pro-epidermal growth factor: PQHWSCPEGTLAGNGNSTCVGPAPFLIFSHGNSIFRIDTEGTNYEQLVVDAGVSVIMDFHYNEKRIYWVDLERQLLQRVFLNGSRQERVCNIEKNVSGMAINWINEEVIWSNQQEGIITVTDMKGNNSHILLSALKYPANVAVDPVERFIFWSSEVAGSLYRADLDGVGVKALLETSEKITAVSLDVLDKRLFWIQYNREGSNSLICSCDYDGGSVHISKHPTQHNLFAMSLFGDRIFYSTWKMKTIWIANKHTGKDMVRINLHSSFVPLGELKVVHPLAQPKAEDDTWEPEQKLCKLRKGNCSSTVCGQDLQSHLCMCAEGYALSRDRKYCEDVNECAFWNHGCTLGCKNTPGSYYCTCPVGFVLLPDGKRCHQLVSCPRNVSECSHDCVLTSEGPLCFCPEGSVLERDGKTCSGCSSPDNGGCSQLCVPLSPVSWECDCFPGYDLQLDEKSCAASGPQPFLLFANSQDIRHMHFDGTDYGTLLSQQMGMVYALDHDPVENKIYFAHTALKWIERANMDGSQRERLIEEGVDVPEGLAVDWIGRRFYWTDRGKSLIGRSDLNGKRSKIITKENISQPRGIAVHPMAKRLFWTDTGINPRIESSSLQGLGRLVIASSDLIWPSGITIDFLTDKLYWCDAKQSVIEMANLDGSKRRRLTQNDVGHPFAVAVFEDYVWFSDWAMPSVMRVNKRTGKDRVRLQGSMLKPSSLVVVHPLAKPGADPCLYQNGGCEHICKKRLGTAWCSCREGFMKASDGKTCLALDGHQLLAGGEVDLKNQVTPLDILSKTRVSEDNITESQHMLVAEIMVSDQDDCAPVGCSMYARCISEGEDATCQCLKGFAGDGKLCSDIDECEMGVPVCPPASSKCINTEGGYVCRCSEGYQGDGIHCLDIDECQLGEHSCGENASCTNTEGGYTCMCAGRLSEPGLICPDSTPPPHLREDDHHYSVRNSDSECPLSHDGYCLHDGVCMYIEALDKYACNCVVGYIGERCQYRDLKWWELRHAGHGQQQKVIVVAVCVVVLVMLLLLSLWGAHYYRTQKLLSKNPKNPYEESSRDVRSRRPADTEDGMSSCPQPWFVVIKEHQDLKNGGQPVAGEDGQAADGSMQPTSWRQEPQLCGMGTEQGCWIPVSSDKGSCPQVMERSFHMPSYGTQTLEGGVEKPHSLLSANPLWQQRALDPPHQMELTQ
modifications: Pro-epidermal growth factor
notes: known cytoskeletal reorganizer
B2: gBDLD: amino acids 57-146 of HCMV AD 169 glycoprotein B disintegrin-like domain, His-tagged, expressed in E. coli (protein)
chain: VTSSEAVSHRANETIYNTTLKYGDVVGVNTTKYPYRVCSMAQGTDLIRFERNIICTSMKPINEDLDEGIMVVYKRNIVAHTFKVRVYQKV
modifications: left off: small tags and cut ends
notes: amino acids 57-146 of HCMV AD 169 glycoprotein B disintegrin-like domain, His-tagged, expressed in E. coli

Experiments:
NHDF cells = assay: Cytoskeletal rearrangement, actin staining with phalloidin; format: cell-based, human; settings: compared to buffer alone
From the text: β1 integrins are known inducers of broad signal transduction events. […] To test the role of gBDLD in mediating signaling events, we stimulated NHDF cells with buffer alone, gBDLD, or a known cytoskeletal reorganizer (EGF), followed by actin staining with phalloidin.

[1] = target: Normal human dermal fibroblasts; assay: Protein binding assay, gBDLD to fibroblasts (His-tag ELISA)
Procedure: Normal human dermal fibroblasts were chilled to 4° C., washed three times with cold MES buffer and blocked with 1 mg/mL bovine serum albumin (BSA) for 30 minutes at 4° C. Unbound BSA was removed with cold MES washes (×4). The indicated amounts of gBDLD were added to each well for 90 minutes at 4° C. Cells were then washed three times with cold MES, twice with cold (phosphate-buffered saline (PBS) and fixed with 3% paraformaldehyde. An ELISA was then performed probing with anti-His rabbit polyclonal antibody (Santa Cruz Biotechnology, Santa Cruz, Calif.) and anti-rabbit HRP (Pierce). Absorbance was measured at 405 nm.
FIG. 7 is a graph depicting the results of a gBDLD binding assay (performed as described previously). Here, binding was measured by absorbance at 405 nm. […] To generate the data, human fibroblasts were incubated with gBDLD for the indicated times at 4° C. Cells were then washed, fixed and an ELISA was performed probing for the gBDLD […] his-tag. […]
FIG. 8 is a graph depicting gBDLD binding to human fibroblasts. As is readily apparent from FIG. 8, this binding is dose-dependent and saturable. […] After three IVIES washes and two PBS washes, cells were fixed in 3% paraformaldehyde and a His-tag ELISA was performed to quantitate gBDLD bound to cells.

HCMV-GFP = assay: HCMV infectivity assay (HCMV-GFP, flow cytometry); format: cell-based, Human cytomegalovirus; settings: human fibroblasts
Procedure: NHDFs were washed three times with MES buffer followed by the addition of gBDLD for 60 minutes at 37° C. Cells were then washed twice with MES buffer, three times with PBS and inoculated with HCMV-GFP (MOI=0.5) in serum-free DMEM. After 60 minutes, virus was removed and a 30 second, low-pH citrate wash was performed to remove extracellular virus. Twenty-four hour, post-infection cells were harvested and flow cytometry was performed to assay for GFP-positive cells.
FIG. 9 is a graph depicting the results of an assay to determine if gBDLD blocks NHDF cells from infection with HCMV. The infectivity assay was performed as described in the earlier examples. Briefly, gBDLD or BSA was added to human fibroblasts for 60 minutes. Cells were then washed, followed by HCMV-GFP challenge for 60 minutes. Cells were then citrate washed to remove any extracellular virus and incubated overnight. Flow cytometry was performed to assay for GFP positive versus total cells. As is readily observed from FIG. 9, gBDLD exerts a dose-dependent inhibition of HCMV infectivity in the cells tested.

diI-labeled HCMV = format: cell-based, Human cytomegalovirus; settings: gBDLD or BSA 320 μg/mL, soluble heparin 50 μg/mL; 24 hours post-infection
β1 integrin = target: T2, β1 integrin (Homo sapiens, UniProt P05556); assay: Integrin co-immunoprecipitation assay, β1; format: binding; settings: human fibroblast lysates, nickel beads
T2 construct: endogenous in cells; host or cells: Normal Human Dermal Fibroblasts (NHDF), detergent lysate
Procedure: (§1) A T-175 flask of NHDFs was grown to complete confluence, washed three times in MES buffer and lysed in 1 mL MES buffer+1% TX-100 (a detergent). Lysate was spun at 10,000 g for 10 minutes to remove cell debris. Cell lysate (350 μL) was then incubated with 20 μg gBDLD for 4 hours at 4° C. The lysate+gBDLD mixture was then incubated with 50 μL Ni beads overnight at 4° C. Nickel beads were then washed three times and protein eluted by boiling and then adding reducing SDS-PAGE buffer. Proteins were separated by SDS-PAGE and Western blotted for β1 integrin (Chemicon-1965) or β3 (Chemicon) as previously described.^48
(§2) To identify the cellular receptor for gBDLD we performed co-immunoprecipitation studies. Briefly, gBDLD was incubated with human fibroblast lysates and pulled down with nickel-conjugated agarose beads.
(§3) Because gBDLD contains a known β1 integrin binding motif, gBDLD bound to its cellular receptor was isolated by SDS-PAGE and then Western blotted for either β1 or β3 integrin. The resulting gels are shown in FIG. 10 (β1) and FIG. 11 (β3).

β3 integrin = target: T1, β3 integrin; assay: Integrin co-immunoprecipitation assay, β3; format: binding; settings: human fibroblast lysates, nickel beads
Procedure: as §1, §2, §3

[2] = Solubility of purified gBDLD in dialysis buffer; format: physicochemical; settings: 55 mM MES, pH 5.5, 300 mM NaCl
Procedure: DNA sequence corresponding to amino acids 57-146 of HCMV AD 169 glycoprotein B disintegrin-like domain (“gBDLD”) was cloned into the bacterial expression vector pET-28a containing an N-terminal His-Tag with thrombin cleavage site and kanamycin resistance. (Commercially available from Novagen, San Diego, Calif.) gBDLD production was induced by the addition of 1 mM isopropyl-βD-thiogalactopyranoside (IPTG). E. coli Tuner strain containing pET-28a:gBDLD was grown at 37° C. in Luria-Bertani medium containing kanamycin (50 μg/mL) to an optical density at 600 nm of approximately 0.6. IPTG (1 mM) was added and the plates were incubated continuously for 4 h at 37° C. Cells were harvested by centrifugation at 4000 r/min for 10 min and pellets were resuspended in 1% Triton X-100/Ni-NTA buffer (300 mM NaCl/50 mM Tris-HCL pH 7.9) and lysed by 3×60 s bursts of sonication. The lysate was centrifuged at 15,000 r/min for 15 minutes at 4° C. The 8M urea/Ni-NTA fraction was then poured into a chromatography column containing nickel-nitriloacetic acid agarose (Ni-NTA) beads at 4° C. and allowed to flow through. […] Fractions containing protein were determined by measuring the absorbance of each fraction at 214 nm. Fractions that corresponded to absorption peaks were analyzed by sodium dodecyl sulfate polyacrylamide electrophoresis (SDS-PAGE) to determine the size of the protein. […]

T2 sequence (P05556 21-798): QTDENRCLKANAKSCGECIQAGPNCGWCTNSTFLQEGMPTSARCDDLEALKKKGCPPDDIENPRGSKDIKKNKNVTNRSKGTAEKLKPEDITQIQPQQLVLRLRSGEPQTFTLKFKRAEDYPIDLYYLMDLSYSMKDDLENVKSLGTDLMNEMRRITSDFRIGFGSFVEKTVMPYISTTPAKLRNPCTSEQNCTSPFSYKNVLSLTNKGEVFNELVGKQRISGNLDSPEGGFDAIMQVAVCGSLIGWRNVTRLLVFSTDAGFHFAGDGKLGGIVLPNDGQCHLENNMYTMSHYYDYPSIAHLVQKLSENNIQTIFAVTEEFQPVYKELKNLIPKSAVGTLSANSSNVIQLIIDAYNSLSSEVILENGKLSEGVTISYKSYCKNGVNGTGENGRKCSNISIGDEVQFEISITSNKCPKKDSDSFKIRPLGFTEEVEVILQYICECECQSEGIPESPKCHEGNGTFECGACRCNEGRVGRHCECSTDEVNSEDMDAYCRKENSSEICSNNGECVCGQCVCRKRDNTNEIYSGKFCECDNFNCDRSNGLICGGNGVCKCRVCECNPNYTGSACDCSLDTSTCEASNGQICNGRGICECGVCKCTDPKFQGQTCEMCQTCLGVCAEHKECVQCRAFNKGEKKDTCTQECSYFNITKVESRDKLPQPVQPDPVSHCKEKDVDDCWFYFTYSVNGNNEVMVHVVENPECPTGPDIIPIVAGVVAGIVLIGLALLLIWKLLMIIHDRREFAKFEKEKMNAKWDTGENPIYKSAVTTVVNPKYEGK

Molecule	reorganization of the cytoskeleton (NHDF cells)	kinetics of gBDLD binding to human fibroblasts ([1]; 4° C., ELISA for his-tag)	concentration at which gBDLD binding to fibroblast monolayers reached saturation ([1]; 60 minutes, after BSA block)	IC50 for HCMV neutralization (HCMV-GFP)	IC50 (HCMV-GFP; read-out: IC50 for HCMV neutralization)	HCMV fusion (dye transfer) and gene expression (diI-labeled HCMV)	interaction with β1 integrin (pull down, Western blot) (β1 integrin)	interaction with β3 integrin (pull down, Western blot) (β3 integrin)	Solubility [2]
B1	triggered a dramatic reorganization of the cytoskeleton								
B2	triggered a dramatic reorganization of the cytoskeleton	rapid kinetics	12.5 µg/mL	20.5 µg/mL	1960 nM	complete block	interacts	does not interact	approximately 1 mg/mL
